B1: rmIL-12: mouse recombinant IL-12, unencapsulated control; 1 µg equivalent to mPCX12 1 mg (protein, UniProt P43431 23-215; P43432 23-335, looked up)
Interleukin-12 subunit alpha: RVIPVSGPARCLSQSRNLLKTTDDMVKTAREKLKHYSCTAEDIDHEDITRDQTSTLKTCLPLELHKNESCLATRETSSTTRGSCLPPQKTSLMMTLCLGSIYEDLKMYQTEFQAINAALQNHNHQQIILDKGMLVAIDELMQSLNHNGETLRQKPPVGEADPYRVKMKLCILLHAFSTRVVTINRVMGYLSSA
Interleukin-12 subunit beta: MWELEKDVYVVEVDWTPDAPGETVNLTCDTPEEDDITWTSDQRHGVIGSGKTLTITVKEFLDAGQYTCHKGGETLSHSHLLLHKKENGIWSTEILKNFKNKTFLKCEAPNYSGRFTCSWLVQRNMDLKFNIKSSSSSPDSRAVTCGMASLSAEKVTLDQRDYEKYSVSCQEDVTCPTAEETLPIELALEARQQNKYENYSTSFFIRDIIKPDPPKNLQMKPLKNSQVEVSWEYPDSWSTPHSYFSLKFFVRIQRKKEKMKETEEGCNQKGAFLVEKTSTEVQCKGGNVCVQAQDRYYNSSCSKWACVPCRVRS

Key:
GL-261 glioma cells [1] = assay: Survival in the GL-261 orthotopic murine glioma model; assay type: in vivo; conditions: for # censored mice: n=22, Day 71
Description: (§1) In an orthotopic murine glioma model, C57B6 mice were inoculated with 3 × 10^5 GL-261 glioma cells in the frontal lobe via intracranial injection with drug treatment on Day 5. Mice were randomly assigned (n=22/group) to receive a single intratumoral dose of mPCX12 at 0.5, 0.75, and 1 mg, or mrIL-12 1 µg (equivalent to mPCX12 1 mg) or empty shells or vehicle. In addition, lomustine (6 mg/kg, QDx5 i.p.) was also assessed. […] At 1 mg mPCX12, tumor IL-12 and IFNy levels were 2069±631 and 646±8 pg/mg respectively on Day 3. […] At Day 90, 41%, 45%, and 55% of the animals that received doses of 0.5, 0.75 or 1 mg mPCX12, respectively, were alive with median survival >90 days (last day of study).
In a second study, GL-261 inoculated mice (n=22 per group) received a single dose of mPCX12 at 0.5, 0.75, and 1 mg. Control treatment groups were, mrIL-12, 0.5 and 1 µg (equivalent to mPCX12 0.5 and 1 mg) or empty shells (1 mg) or vehicle control intratumoral. In addition, lomustine (6 mg/kg, QDx5 i.p.) was also assessed. Day 71 was the last day of the study. Animals were euthanized when they became moribund.
PCX12 (1 mg) >50% of mice survived to the end of the study (Day 71) and were tumor-free.

GL-261 glioma cells [2] = tested on: GL-261 glioma cells; design: species or system C57B6 mice; conditions: mouse, in vivo
Description: as §1
In the first study, six days post GL-261 inoculation, a single dose of mPCX12 at 0.5, 0.75, and 1 mg was administered to 4 animals per timepoint (TP). Control treatment groups were, mrIL-12 1 µg (equivalent to mPCX12 1 mg) or empty shells. In addition, lomustine (6 mg/kg, QDx5 i.p.) was also assessed. At 3- and 7-days post drug administration, animals were euthanized, serum and tumor IL-12 and IFN-γ levels were determined via ELISA.
Low levels of IL-12 and IFN-γ observed in the systemic circulation of mPCX12 and mrIL-12 groups. FIGS. 1A-D: All values expressed as Mean +/- SEM; n=4 per timepoint; ND: Not Detected.

| Molecule | % alive at 71 Days Post Treatment (GL-261 glioma cells [1]; Lomustine 6 mg/kg QDx5 i.p.) | # censored mice (GL-261 glioma cells [1]; Lomustine 6 mg/kg QDx5 i.p.) | Median survival (GL-261 glioma cells [1]; Lomustine 6 mg/kg QDx5 i.p., study end Day 71) | Median survival (GL-261 glioma cells [1]; lomustine 6 mg/kg QDx5 i.p., text b126 (last day of study Day 90)) | IL-12 and IFNγ in the systemic circulation (GL-261 glioma cells [2]) | tumor IL-12 persistence by Day 7 (GL-261 glioma cells [2]) | Median survival (GL-261 glioma cells [1]; mrIL-12 1 µg intratumoral, text b126 (last day of study Day 90)) | % alive at 71 Days Post Treatment (GL-261 glioma cells [1]; rmIL-12 0.5 µg) | Median survival (GL-261 glioma cells [1]; rmIL-12 0.5 µg intratumoral, study end Day 71) | # censored mice (GL-261 glioma cells [1]; rmIL-12 0.5 µg) | % alive at 71 Days Post Treatment (GL-261 glioma cells [1]; rmIL-12 1 µg) | Median survival (GL-261 glioma cells [1]; rmIL-12 1 µg intratumoral, study end Day 71) | # censored mice (GL-261 glioma cells [1]; rmIL-12 1 µg) |
| --- | --- | --- | --- | --- | --- | --- | --- | --- | --- | --- | --- | --- | --- |
| O=NN(CCCl)C(=O)NC1CCCCC1 [Lomustine, lomustine, reference compound] | 18% | 4 | 38 days | 20 days |  |  |  |  |  |  |  |  |  |
| B1 |  |  |  |  | Low levels | returned to baseline | 37 days | 45% | 38 days | 10 | 41% | 37 days | 9 |

From patent US20230277628A1, “METHODS FOR PROMOTING ANTI-TUMOR IMMUNE RESPONSE IN A SUBJECT IN NEED THEREOF USING ENCAPSULATED INTERLEUKIN 12” (Spectrum Pharmaceuticals, Inc., priority 2022, published 2023)
